Reference: patent US20160046725A1 (PIERRE FABRE MEDICAMENT, published 2016)

Columns and labels:
[1] = target: T1, recombinant human Axl-Fc protein (R and D Systems, cat N° 154-AL) (human, UniProt P30530 26-451); assay: competition ELISA, rhAxl-Fc on coated rhGas6 (competitor: Gas6)
T1 construct: Bought construct; An anti-Histidine coating control hints at a His tag, not described; also called rhAxl-Fc; rh Axl-Fc; not shown: human Fc portion of the bought fusion
T1 sequence: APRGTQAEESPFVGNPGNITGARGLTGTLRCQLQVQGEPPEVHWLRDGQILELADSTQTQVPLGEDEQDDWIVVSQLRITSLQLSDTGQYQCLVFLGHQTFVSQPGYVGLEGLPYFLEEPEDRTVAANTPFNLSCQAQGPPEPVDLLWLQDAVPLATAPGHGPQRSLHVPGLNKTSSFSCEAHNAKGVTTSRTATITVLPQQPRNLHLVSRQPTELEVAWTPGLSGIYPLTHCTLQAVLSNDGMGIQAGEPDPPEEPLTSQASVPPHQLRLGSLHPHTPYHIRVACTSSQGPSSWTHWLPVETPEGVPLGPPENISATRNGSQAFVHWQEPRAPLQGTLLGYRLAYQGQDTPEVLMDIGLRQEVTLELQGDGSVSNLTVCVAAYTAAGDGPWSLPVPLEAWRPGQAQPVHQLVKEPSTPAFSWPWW
Description: To further characterize the anti-Axl Mabs, Gas6 competition assays were performed. In this assay, the free rhAxl-Fc protein and the anti-Axl antibody are incubated to form antigen-antibody complex and then the complexes are loaded on Gas6-coated surface in the assay plate. The unbound antibody-antigen complexes are washed off before adding enzyme-linked secondary antibody against the human Fc portion of the rhAxl-Fc protein. The substrate is then added and the antigen concentration can then be determined by the signal strength elicited by the enzyme-substrate reaction.
Briefly reaction mixture comprising the rhAxl-Fc protein in presence or not of the Mabs to be tested, are prepared on a separate saturated (0.5% gelatin in PBS 1×) plate. Serial 1: 2 dilutions (starting from 80 μg/ml on 12 columns) of murine Axl antibodies (110D7, 1003A2 and 1024G11) are performed. Then 0.5 μg/ml of the rhAxl-Fc protein is added (R and D Systems, ref 154AL/CF), except to the negative control line that contains only ELISA diluant (0.1% gelatin, 0.05% Tween 20 in PBS 1×). After homogenisation, the competition samples are loaded on Gas6-coated plates with a 6 μg/ml rhGas6 solution in PBS (R and D Systems cat N° 885-GS-CS/CF). After incubation and several washes, bound rhAxl-Fc proteins are detected using a goat anti-Human IgG-HRP (Jackson, ref 109-035-098). Once bound, the TMB substrate is added to the plates. The reaction is stopped by addition of H₂SO₄ acid solution and the obtained optical densities read at 450 nm using a microplate reader instrument.

[2] = target: T2, recombinant human Mer-Fc protein (R and D Systems, cat N° 891-MR) (human, UniProt Q12866 26-499, limits assumed); assay: ELISA on coated protein
T2 construct: Bought construct; also called rhMer-Fc; rh-Mer-Fc; not shown: Fc portion of the bought fusion
T2 sequence (looked up): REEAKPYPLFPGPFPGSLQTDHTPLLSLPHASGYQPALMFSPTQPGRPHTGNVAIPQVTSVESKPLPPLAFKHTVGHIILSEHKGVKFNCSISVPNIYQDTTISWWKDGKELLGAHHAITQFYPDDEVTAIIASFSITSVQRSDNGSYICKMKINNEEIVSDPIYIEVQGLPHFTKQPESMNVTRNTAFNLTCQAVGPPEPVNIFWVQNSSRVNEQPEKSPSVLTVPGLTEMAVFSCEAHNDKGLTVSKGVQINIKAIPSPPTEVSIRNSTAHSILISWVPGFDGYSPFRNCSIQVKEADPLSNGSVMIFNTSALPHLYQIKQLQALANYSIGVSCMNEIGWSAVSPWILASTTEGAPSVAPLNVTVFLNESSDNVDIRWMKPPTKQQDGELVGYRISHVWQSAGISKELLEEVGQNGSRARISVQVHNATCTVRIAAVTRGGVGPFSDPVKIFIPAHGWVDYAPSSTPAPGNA
Description: (§1) Briefly, the recombinant human Axl-Fc (R and D systems, cat N° 154AL/CF), rhDtk (R and D Systems, cat N° 859-DK) or rh-Mer-Fc (R and D Systems, cat N° 891-MR) proteins were coated overnight at 4° C. to Immulon II 96-well plates and, after a 1 h blocking step with a 0.5% gelatine solution, 110D7, 1003A2, 1024G11 purified antibodies were added, respectively, for an additional 1 h at 37° C. at starting concentration of 5 μg/ml (3.33 10⁻⁸M). Then ½ serial dilutions were done over 12 columns. Then plates were washed and a goat anti-mouse (Jackson) specific IgG-HRP was added for 1 h at 37° C. Reaction development was performed using the TMB substrate solution. The commercial anti-Axl Mab 154 antibody is also used in parallel (data not shown). Coating controls are performed in presence of a goat anti-human IgG Fc polyclonal serum labelled with HRP (Jackson, ref 109-035-098) and/or in presence of a HRP-coupled anti-Histidine antibody (R and D Systems, ref: MAB050H). No non specific binding is observed in absence of primary antibody (diluant). Results for the 110D7 are represented in FIGS. 2A, 2B and 2C, respectively. Results for the 1003A2 are represented in FIGS. 2D, 2E and 2F, respectively. Results for the 1024G11 are represented in FIGS. 2G, 2H and 2I, respectively.

[3] = target: T3, recombinant human Dtk-Fc protein (R and D Systems, cat N° 859-DK) (human, UniProt Q06418 41-428); assay: ELISA on coated protein
T3 construct: Bought construct; also called rhDtk-Fc; rhDtk; not shown: Fc portion of the bought fusion
T3 sequence (looked up): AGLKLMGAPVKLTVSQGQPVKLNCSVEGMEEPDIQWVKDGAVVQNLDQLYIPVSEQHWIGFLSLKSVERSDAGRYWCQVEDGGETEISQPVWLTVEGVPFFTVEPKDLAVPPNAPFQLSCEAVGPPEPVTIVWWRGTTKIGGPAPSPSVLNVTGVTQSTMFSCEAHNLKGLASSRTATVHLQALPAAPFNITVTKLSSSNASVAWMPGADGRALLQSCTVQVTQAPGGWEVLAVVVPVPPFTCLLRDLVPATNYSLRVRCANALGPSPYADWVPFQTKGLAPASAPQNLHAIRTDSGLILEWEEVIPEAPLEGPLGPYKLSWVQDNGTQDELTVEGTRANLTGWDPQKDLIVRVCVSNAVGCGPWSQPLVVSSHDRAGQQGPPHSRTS
Description: as §1

B1: 110D7 anti-Axl monoclonal antibody (antibody, V domains shown)
VH: EVKLVESGGGLVQPGGSLKLSCATSGFTFSDYYMYWVRQTPEKRLEWVAYISNGGGSTYYPDTVKGRFTMSRDNAKNTLYLQMSRLKSEDTAMYYCARLSFYAMDYWGQGTSVTVSS
VL: DIVMTQSHKFMSTSVGDRVSITCKASQDVTTAVAWYQQKPGQSPKLLIYWASTRHTGVPDRFTGSGSGTDYTLTISSVQAEDLALYYCQQHYRIPFTFGSGTKLEIK
notes: Murine monoclonal antibody purified from a hybridoma; a mIgG1 isotype control (9G4) is used beside it; also called m110D7; monoclonal antibody 110D7 derived from the hybridoma I-3959
antibody concentration above which competition with Gas6 binding occurs [1]: > 16.7 nM | binding result [2]: no binding | binding result [3]: no binding

B2: 1024G11 anti-Axl monoclonal antibody (antibody, V domains shown)
VH: EVKLVESGGGLVQPGGSLNLSCAASGFTFSSYSMSWVRQTPEKRLEWVAFISNGGGRTYYPDTVKGRFTFSRDNARNTLYLQMSSLNSEDTAMYFCARGTTESYYAMDYWGQGTSVTVSS
VL: DIVMTQSHKFMSTSVGDRVSITCKASQDVITAVAWYQQKPGQSPKLLIYWASTRHTGVPDRFTGSGSGTDYTLTISSVQAEDLALYFCQQHLSTPLTFGAGTKLELK
notes: Murine monoclonal antibody purified from a hybridoma; a mIgG1 isotype control (9G4) is used beside it; also called monoclonal antibody 1024G11 derived from the hybridoma I-4501
antibody concentration above which competition with Gas6 binding occurs [1]: > 16.7 nM | binding result [2]: no binding | binding result [3]: no binding

B3: 1003A2 anti-Axl monoclonal antibody (antibody, V domains shown)
VH: EVKLVESGGGLVQPGGSLKLSCAASGFTFNSYSMSWVRQTPEKRLEWVAYISNGGGRTYYPDTIKGRFTLSRDNDRNTLYLQMSSLKSEDTAMYYCARGTTESYYALDYWGQGTSVTVSS
VL: DIVMTQSHKFMSTSLGDRISITCKASQDVITAVAWYQQKPGQSPKLLIYWASTRHTGVPDRFTGSGSGTDYNLTISSVQAEDLALYYCQQHFSTPLTFGAGTKLELK
notes: Murine monoclonal antibody purified from a hybridoma; a mIgG1 isotype control (9G4) is used beside it; also called monoclonal antibody 1003A2 derived from the hybridoma I-4499
antibody concentration above which competition with Gas6 binding occurs [1]: > 16.7 nM | binding result [2]: no binding | binding result [3]: no binding
